The values below are quoted from earlier work in US20100120660A1, “HIGHLY CONCENTRATED INSULIN SOLUTIONS AND COMPOSITIONS” (priority 2007, published 2010).

As for porcine insulin, the “stability of insulin in highly concentrated solution” value (acidic pH) is “not stable due to deamidation and polymerisation”. Under “comprising zinc, neutral pH”, the “concentration of stable insulin solutions” value is listed as “up to 6 mM”.
